Assay results: patent US20230295310A1 (ABCELLERA BIOLOGICS, published 2023)
Positions count from the first letter of the chain named. Each block holds one binder with its values, some of them ahead of it.

Experiments:
[1] = biological target: T1, human CD3e/g (human, UniProt P07766 23-126; P09693 23-116); assay: SPR (Carterra LSA), mAb on chip
T1 construct: Bought soluble protein; also called hCD3e/g; human CD3e/g (Acro CDD-C52W4)
Protocol: (§1) High-throughput surface plasmon resonance (SPR) coupled kinetic experiments were performed on a Carterra LSA® instrument equipped with an HC-30M chip type (Carterra, USA). The instrument uses two microfluidic modules, a single-flow cell (SFC) and a 96 printhead, to deliver samples to the chip surface via back-and-forth cycling of a fixed sample volume. An up to 384-ligand array is generated by docking the MFC onto each of the four nested print block locations in a serial manner.
(§2) The purified mAbs were immobilized on a Carterra LSA® HC-30M chip by direct coupling. The chip surface was first activated by flowing a freshly prepared 1:1:1 activation mix of 100 mM MES pH 5.5, 100 mM S-NHS, 400 mM EDC for 7 min. mAbs diluted to 10 μg/mL in 10 mM NaOAc pH 4.25+0.01% TWEEN®20 were then injected and printed onto the chip surface simultaneously using the MFC printhead for 10 min. Finally, the chip surface was quenched by flowing 1 M ethanolamine for 7 min (to block the excess reactive esters), followed by 2 wash steps of 15 s each in 25 mM MES pH 5.5. In addition to expressed and purified mAbs, relevant benchmarks and negative control mAbs were also printed on the chip surface.
(§3) The data were analyzed using the Carterra Kinetics analysis software. Briefly, the data were referenced with the interstitial reference spots and double-referenced to a buffer cycle, and then fit globally to a 1:1 Langmuir binding model to determine their apparent association (ka) and dissociation (kd) kinetic rate constants and binding affinity constants (KD).

[2] = biological target: T2, human CD3e/d (human, UniProt P07766 23-126; P04234 22-105); assay: SPR (Carterra LSA), mAb on chip
T2 construct: Bought soluble protein; also called hCD3e/d; human CD3/ed (Sino CT038-H2508H)
T2 sequence (P07766 23-126, chain 1 of 2): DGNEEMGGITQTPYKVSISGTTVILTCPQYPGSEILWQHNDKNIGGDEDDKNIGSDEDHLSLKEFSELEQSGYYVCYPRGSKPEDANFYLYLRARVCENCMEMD
T2 sequence (P04234 22-105, chain 2 of 2): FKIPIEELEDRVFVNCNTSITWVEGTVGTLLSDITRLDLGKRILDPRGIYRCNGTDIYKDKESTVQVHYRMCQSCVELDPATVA
Protocol: as §1, §2, §3

T1 sequence (P07766 23-126, chain 1 of 2): as the sequence (P07766 23-126, chain 1 of 2) above
T1 sequence (P09693 23-116, chain 2 of 2): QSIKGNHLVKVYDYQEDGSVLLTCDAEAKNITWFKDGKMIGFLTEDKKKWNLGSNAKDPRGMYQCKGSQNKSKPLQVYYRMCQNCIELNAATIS

B1: mAb 44 (antibody, V domains shown)
VH: QAQLVQSGSELKKPGASVKVSCKASGYTFTRHAMNWVRQAPGQGLEWMGWINTNTGNPTYAQGFTGRFVFSLDTSVSTAYLKISSLKAEDTAVYYCVREGDYDFWSGFFNFDYWGQGTLVTVSS
VL: DIQMTQSPSSLSASVGDRVTITCRASQGIRNDLGWFQQKPGKAPTRLIYAASSLQSGVPSRFSGSGSGAEFTLTISSLQPEDFATYYCLQHNSYPRTFGQGTKVEIK
notes: VH and VL only
Kd [1]: 19.1 nM

B2: mAb 55 (antibody, V domains shown)
VH: QVQLEQSGAEVKKPGASVKVSCKTSGYIFANYDINWVRQATGQGLEWMGWMNPKSGKAGYAQKFQGRVTMTSNTPINTAYMELSSLRSEDTAVYYCAREGHYDFWRGFYSFDYWGQGILVTVSS
VL: B1 VL with F36Y, T45K, A50T, A69T, Y87F, H91Y, S93T, R96Y, V104L
notes: VH and VL only
Kd [1]: 85.7 nM

B3: mAb 71 (antibody, V domains shown)
VH: QVQLVQSGAEVRKPGASVKVSCKASGYTFTKYDVNWVRQAPGQGLEWMGWMNSNNGNIGYAQKFQGRVTMTRKTSISTAYMELSSLRSEDTAVYYCAREGHYDFWRGFYNFDYWGQGTLVTVSS
VL: B1 VL with G28D, R30K, F36Y, T45K, A69T, S93F, R96I, K103R, V104L
notes: VH and VL only
Kd [1]: 113 nM

B5: mAb 53 (antibody, V domains shown)
VH: QVQLVQSGAEVKKPGASVKVSCKASGYTFTSYDINWVRQATGQGLEWMGWMNPKSGKTGYAQKFQGRITMTRNTPISTVYMDLSSLRSEDTAVYYCAREGHYDFWTGYYSFDYWGQGTLVTVSS
VL: B1 VL with F36Y, K39T, T45K, A69T, N92Y, R96Y, V104L
notes: VH and VL only
Kd [1]: 258 nM

B7: mAb 67 (antibody, V domains shown)
VH: EVQLVESGGDLVQPGRSLRLSCAASGFTFDDCVIHWVRQAPGKGLEWVSGITWNSGRIGYADSVKGRFTISRDNAKNSLYLQMNSLRVEDTALYYCAKEGNYDFWSTYYRGYFDLWGRGTLVTVSS
VL: B1 VL with F36Y, K42I, T45K, S56G, S60L, A69T, R96Y, V104L
notes: VH and VL only
Kd [1]: 18.6 nM

B8: mAb 50 (antibody, V domains shown)
VH: B1 VH with S77T, K82Q, V97A
VL: B1 VL
notes: VH and VL only
Kd [1]: 34.3 nM

B9: mAb 47 (antibody, V domains shown)
VH: B1 VH with R31K, A33S, S77T, K82Q, V97A
VL: B1 VL with F36Y, T45K, A69T
notes: VH and VL only
Kd [1]: 20.1 nM

B10: mAb 46 (antibody, V domains shown)
VH: EGQLVESGGGLVQPGGSLRLSCVASGFTLSSYTLNWVRQAPGKGLEWVSYISSTSRTIYYSDSVKGRFTISRDNAKNSLYLQMNSLRDEDTALYYCAREDYYDSSGFDYWGQGTLVTVSS
VL: AIRMTQSPSSFSASTGDRVTITCRASQGISSYLAWYQQKPGKAPKLLIYTASTLQSGVPSRFSGSGSGTDFTLTIRSLQSEDFATYYCQQYYSYPRTFGQGTKVEIK
notes: VH and VL only
Kd [2]: 240 nM
Kd [1]: 98.4 nM

B11: mAb 51 (antibody, V domains shown)
VH: B10 VH with G2V, V23A, L34M, T54S, T69S, Y109N
VL: B10 VL
notes: VH and VL only
Kd [2]: 351 nM
Kd [1]: 171 nM

B14: mAb 120 (antibody, V domains shown)
VH: EVQLVESGGGLVKTGGSLRLSCVASGFSFKKAWMNWVRQAPGKGLEWVGRIKRNTDGGTADYAAPVKGRFTLSRDDSKKTLFLQMNSLKTEDTAVYYCTTLDSSSYYVGYYYMDVWGKGTTVTVSS
VL: DIQMTQSPSSVSASVGDRVTITCRASQDINNWLAWYQQKPGKAPKLLIYTASSLQSGVPSRFSGSGSGTDFTLTIGSLQPEDFATYYCQQAHSLPITFGQGTRLEIK
notes: VH and VL only
Kd [2]: 44.4 nM
Kd [1]: 12.1 nM

B17: mAb 113 (antibody, V domains shown)
VH: B14 VH with A60T, K79N, F82Y, Y106W
VL: B14 VL with L46I, G76S
notes: VH and VL only
Kd [2]: 107 nM
Kd [1]: 28.8 nM

B29: mAb 114 (antibody, V domains shown)
VH: B14 VH with T59P, F82Y, Y106W
VL: B14 VL with T20I, Q37L, K39R, T50A, K107Q
notes: VH and VL only
Kd [2]: 65.8 nM
Kd [1]: 18.9 nM

B30: mAb 116 (antibody, V domains shown)
VH: B14 VH with T55S, A60T, K79N, F82Y, Y106W
VL: B14 VL with S9F, L46I, G76S
notes: VH and VL only
Kd [2]: 104 nM
Kd [1]: 24.1 nM

The remaining binders from weak to strong by Kd [1], led by results:

Kd [1]: 16.2 nM
B4: mAb 73 (antibody, V domains shown)
VH: EVELVESGGGLVQPGRSLRLSCAASGFTFDDKVMHWVRQAPGKGLEWVSCINWNSGHIGYADSVKGRFTISRDNARTSLYLQMNSLRPEDTALYYCVREGNYDFWSGYYRGFFDLWGRGTLVTVSS
VL: B1 VL with F36Y, T45K, S56G, A69T, N92T, R96F, V104L
notes: VH and VL only

Kd [2]: 63.8 nM
Kd [1]: 15.7 nM
B23: mAb 115 (antibody, V domains shown)
VH: B14 VH with L18H, T55S, A60T, T71I, K79N, F82Y, Y106W
VL: B14 VL with L46I, S53N, G76S, Y87F, S93G
notes: VH and VL only

Kd [2]: 77 nM
Kd [1]: 15 nM
B21: mAb 164 (antibody, V domains shown)
VH: B14 VH
VL: B14 VL with N30K
notes: VH and VL only

Kd [2]: 56.9 nM
Kd [1]: 14.8 nM
B22: mAb 112 (antibody, V domains shown)
VH: B14 VH with L18H, T55S, A60T, T71I, K79N, F82Y, Y106W
VL: B14 VL with L46I, S53N, G76S, Y87F
notes: VH and VL only

Kd [2]: 36 nM
Kd [1]: 13.8 nM
B18: mAb 125 (antibody, V domains shown)
VH: B14 VH with F82Y, Y106R
VL: B14 VL with T20I, A43V, S77T, E105D
notes: VH and VL only

Kd [2]: 34.2 nM
Kd [1]: 13 nM
B19: mAb 122 (antibody, V domains shown)
VH: B14 VH with F82Y, Y106R
VL: B14 VL with T20I, A43V
notes: VH and VL only

Kd [2]: 73.8 nM
Kd [1]: 12.6 nM
B16: mAb 169 (antibody, V domains shown)
VH: B14 VH
VL: B14 VL with T20I, T72I
notes: VH and VL only

Kd [2]: 47.3 nM
Kd [1]: 12.5 nM
B15: mAb 166 (antibody, V domains shown)
VH: B14 VH with K43R, A60T, K79N, T80M, F82Y, Y106L
VL: B14 VL with G76S, Y87F, K107T
notes: VH and VL only

Kd [2]: 53.1 nM
Kd [1]: 12.2 nM
B32: mAb 157 (antibody, V domains shown)
VH: B14 VH with N54T, T55A, T59A, A60T, K79N, F82Y, Y106W
VL: B14 VL with Q3H, S7A, I21F, G76S, E105G
notes: VH and VL only

Kd [2]: 40.4 nM
Kd [1]: 10.6 nM
B28: mAb 165 (antibody, V domains shown)
VH: B14 VH with K79R, F82Y, Y106R
VL: B14 VL with T20I, A43V
notes: VH and VL only

Kd [2]: 40.6 nM
Kd [1]: 9.84 nM
B26: mAb 117 (antibody, V domains shown)
VH: B14 VH with A60T, K79N, F82Y, Y106L
VL: B14 VL with G76S
notes: VH and VL only

Kd [1]: 9.83 nM
B6: mAb 74 (antibody, V domains shown)
VH: EVQLVESGGGLVQPGRSLRLSCAASGFTFADYVMHWVRQAPGKGLEWVSGINWNNARIGYVGSVKGRFTISRDNAKNSLYLQMTSLRVEDTALYHCVREGNFDFWSAYYRGFLDLWGRGTLVTVSS
VL: B1 VL with N31S, F36Y, T45K, A50G, S56G, A69T, R96Y, V104L
notes: VH and VL only

Kd [2]: 42 nM
Kd [1]: 8.63 nM
B27: mAb 163 (antibody, V domains shown)
VH: B14 VH with A40V
VL: B14 VL with T20I
notes: VH and VL only

Kd [2]: 32.1 nM
Kd [1]: 7.45 nM
B20: mAb 131 (antibody, V domains shown)
VH: B14 VH with L20I, A60I, T71S, K79N, Y97F
VL: B14 VL with Q3H, G76S, Y87F, E105G
notes: VH and VL only

Kd [2]: 46.2 nM
Kd [1]: 7.07 nM
B31: mAb 155 (antibody, V domains shown)
VH: B14 VH
VL: B14 VL with T20I, T97S, E105D
notes: VH and VL only

Kd [2]: 47.7 nM
Kd [1]: 7 nM
B25: mAb 156 (antibody, V domains shown)
VH: B14 VH
VL: B14 VL with T20I, P40A
notes: VH and VL only

Kd [2]: 27.2 nM
Kd [1]: 6.64 nM
B24: mAb 133 (antibody, V domains shown)
VH: B14 VH with N35S, T93S, T99V
VL: B14 VL with T20S
notes: VH and VL only

Kd [2]: 21.7 nM
Kd [1]: 6.07 nM
B13: mAb 130 (antibody, V domains shown)
VH: B14 VH with T55S, T59A, A60T, G68D, K79N, F82Y, Y106W
VL: B14 VL with Q3H, V15L, I21F, K39R, G76S, E105G
notes: VH and VL only

Kd [1]: 0.69 nM
B12: mAb 320 (antibody, V domains shown)
VH: QVQLVESGGGVVQPGRSLRLSCAASGFTFRSYGMHWVRQAPGKGLEWVAIIWYDGSKKYYADSVKGRFTISRDNSKNILYLQMNSLRAEDTAVYYCARQEFNWNDGGYYYMDVWGKGTTVTVSS
VL: DIQLTQSPSFLSASVGDRVTITCRASQGISSYLDWCQQKPGKAPKLLIYAASTLQSGVPSRFSGSGSGTEFTLTISSLQPEDFATYYCQQLDNYPPTFGGGTKVEIK
notes: VH and VL only
